We go through three molecules from paper PMC6593402, “The Structure of an Injectisome Export Gate Demonstrates Conservation of Architecture in the Core Export Gate between Flagellar and Virulence Type III Secretion Systems” (mBio, 2019).

The stoichiometry N is a count of units in the complex or per binding partner.

“And” between values parts separate entries of the source, which are not always exact repeats. Equal values may be shown once.

First the molecules themselves.
B3: Salmonella enterica serovar Typhimurium FliP (natural protein)
chain: QLPGLISQPLAGGGQSWSLSVQTLVFITSLTFLPAILLMMTSFTRIIIVFGLLRNALGTPSAPPNQVLLGLALFLTFFIMSPVIDKIYVDAYQPFSEQKISMQEALDKGAQPLRAFMLRQTREADLALFARLANSGPLQGPEAVPMRILLPAYVTSELKTAFQIGFTIFIPFLIIDLVIASVLMALGMMMVPPATIALPFKLMLFVLVDGWQLLMGSLAQSFYS
notes: FliP, flagellar export gate component, Salmonella enterica serovar Typhimurium; expressed from the complete operon; source: purified from membranes

In series [1] the target is T1, Salmonella enterica serovar Typhimurium FliR (Salmonella enterica serovar Typhimurium, UniProt P54702 1-264).
T1 construct: FliR, flagellar export gate component, Salmonella enterica serovar Typhimurium; expressed from the complete operon; 'full length' rests on the words 'the same strategy of expression of the complete operon'; source: purified from membranes
T1 sequence: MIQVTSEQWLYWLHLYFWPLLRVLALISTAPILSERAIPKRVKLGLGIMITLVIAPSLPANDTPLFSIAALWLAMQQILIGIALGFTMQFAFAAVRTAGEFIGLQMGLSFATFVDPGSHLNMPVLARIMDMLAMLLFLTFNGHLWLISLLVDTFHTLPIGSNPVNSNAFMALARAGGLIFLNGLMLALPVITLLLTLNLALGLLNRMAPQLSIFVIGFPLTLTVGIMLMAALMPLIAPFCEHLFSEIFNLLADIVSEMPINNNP
Nature of the series: cryo-EM structure; re-refinement in RELION-3 of the original S. Typhimurium FliPQR single-particle data of ref. 17 (particle polishing, per-particle CTF refinement), 3.65 Å; coordinates remodeled and re-refined. Conditions: both partners purified.

Series [2] deals with the molecule itself. Described as above.
Series [3] deals with B3. The series is described as above. Conditions: both partners purified.
Series [4] deals with the molecule itself. Put plainly: cryo-EM structure; SctRST co-expressed from the operon in E. coli, complex purified by the Dual-Strep tag on SctT and SEC; 0.01% LMNG in TBS (100 mM Tris, 150 mM NaCl, 1 mM EDTA, pH 8), 8.4 mg/ml; single-particle reconstruction at 3.5 Å, with further 3D classification of the particle set.

B1: Salmonella enterica serovar Typhimurium FliQ (natural protein)
chain: MTPESVMMMGTEAMKVALALAAPLLLVALITGLIISILQAATQINEMTLSFIPKIVAVFIAIIVAGPWMLNLLLDYVRTLFSNLPYIIG
notes: FliQ, flagellar export gate component, Salmonella enterica serovar Typhimurium; expressed from the complete operon; 'full length' rests on the words 'the same strategy of expression of the complete operon'; source: purified from membranes
Regarding B1, the binding result in series [1], in series [2] and in series [3] was “binds” throughout.

B2: Shigella flexneri SctS (Spa9) (natural protein)
chain: MSDIVYMGNKALYLILIFSLWPVGIATVIGLSIGLLQTVTQLQEQTLPFGIKLIGVSISLLLLSGWYGEVLLSFCHEIMFLIKSGV
notes: Spa9 (SctS), export gate component of the Shigella flexneri virulence type III secretion system; expressed from the complete operon (Spa24/Spa9/Spa29); Two to four copies stand in the SctRST complexes; 'full length' rests on the words 'expression of the complete operon'; source: E. coli BL21, co-expressed from plasmid pT12_Spa24929, membranes dissolved in 1% LMNG, purified (StrepTrap, SEC)
Take B2: the “stoichiometry N” value in series [4] was 2 and 3.
Turning to B3, the binding result in series [1] and in series [2] was “binds” each time.
